Test results: US6051217, “Therapeutic uses of interleukin-3 (IL-3) multiple mutation polypeptides” (G. D. Searle & Co., dated 2000)

Target: T1, hIL-3 receptor (human, UniProt P26951)
T1 sequence: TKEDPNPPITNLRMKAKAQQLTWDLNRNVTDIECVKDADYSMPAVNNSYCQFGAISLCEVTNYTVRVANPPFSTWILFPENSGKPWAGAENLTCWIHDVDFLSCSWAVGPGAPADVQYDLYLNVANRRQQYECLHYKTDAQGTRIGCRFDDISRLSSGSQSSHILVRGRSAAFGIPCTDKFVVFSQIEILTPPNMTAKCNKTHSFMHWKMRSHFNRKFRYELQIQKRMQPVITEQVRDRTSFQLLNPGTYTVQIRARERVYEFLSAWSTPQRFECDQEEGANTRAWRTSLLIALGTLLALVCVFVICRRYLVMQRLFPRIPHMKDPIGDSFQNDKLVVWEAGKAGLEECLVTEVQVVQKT
Experiment: cell-based or functional assay

B1: pMON13287 polypeptide (ligand)
chain: MANCSIMIDEIIHHLKRPPAPLLDPNNLNAEDVDILMERNLRLPNLESFVRAVKNLENASGIEAILRNLQPCLPSATAAPSRHPIIIKAGDWQEFREKLTFYLVTLEQAQEQQ
- Relative Biological Activity (AML 193 proliferation): 26 EC50 (1-133)hIL-3 / EC50 mutant

B2: pMON13292 polypeptide (ligand)
chain: MANCSIMIDEIIHHLKVPPAPLLDSNNLNSEDMDILMERNLRLPNLLAFVRAVKNLENASGIEAILRNLVPCLPSATAAPSRHPITIKAGDWQEFREKLTFYLVTLEQAQEQQ
- Relative Biological Activity (AML 193 proliferation): 6 EC50 (1-133)hIL-3 / EC50 mutant

B3: pMON13289 polypeptide (ligand)
chain: MANCSIMIDEIIHHLKVPPAPLLDSNNLNSEDMDILMERNLRLPNLLAFVRAVKNLENASGIEAILRNLQPCLPSATAAPSRHPIIIKAGDWQEFREKLTFYLVTLEQAQEQQ
- Relative Biological Activity (AML 193 proliferation): 13 EC50 (1-133)hIL-3 / EC50 mutant

B4: pMON13290 polypeptide (ligand)
chain: MANCSIMIDEIIHHLKRPPAPLLDPNNLNAEDVDILMERNLRLPNLESFVRAVKNLENASGIEAILRNLVPCLPSATAAPSRHPITIKAGDWQEFREKLTFYLVTLEQAQEQQ
- Relative Biological Activity (AML 193 proliferation): 20 EC50 (1-133)hIL-3 / EC50 mutant

B5: pMON13288 polypeptide (ligand)
chain: MANCSIMIDEIIHHLKRPPNPLLDPNNLNSEDMDILMERNLRTPNLLAFVRAVKHLENASGIEAILRNLQPCLPSATAAPSRHPIIIKAGDWQEFREKLTFYLVTLEQAQEQQ
- Relative Biological Activity (AML 193 proliferation): 24 EC50 (1-133)hIL-3 / EC50 mutant

B6: pMON13295 polypeptide (ligand)
chain: MANCSIMIDEIIHHLKVPPAPLLDSNNLNSEDMDILMERNLRLPNLLAFVRAVKNLENASGIEAILRNLVPCLPSATAAPSRHPITIKAGDWQEFREKLTFYLVSLEHAQEQQ
- Relative Biological Activity (AML 193 proliferation): 3 EC50 (1-133)hIL-3 / EC50 mutant

B7: pMON13301 polypeptide (ligand)
chain: MANCSIMIDEIIHHLKRPPAPLLDPNNLNAEDVDILMERNLRLPNLESFVRAVKNLENASAIESILKNLLPCLPLATAAPTRHPIHIKDGDWNEFRRKLTFYLKTLENAQAQQ
- Relative Biological Activity (AML 193 proliferation): 2 EC50 (1-133)hIL-3 / EC50 mutant

B8: pMON13303 polypeptide (ligand)
chain: MANCSIMIDEIIHHLKVPPAPLLDSNNLNSEDMDILMERNLRLPNLLAFVRAVKNLENASAIESILKNLLPCLPLATAAPTRHPIHIKDGDWNEFRRKLTFYLKTLENAQAQQ
- Relative Biological Activity (AML 193 proliferation): 0.6 EC50 (1-133)hIL-3 / EC50 mutant

B9: pMON13302 polypeptide (ligand)
chain: MANCSIMIDEIIHHLKRPPNPLLDPNNLNSEDMDILMERNLRTPNLLAFVRAVKHLENASAIESILKNLLPCLPLATAAPTRHPIHIKDGDWNEFRRKLTFYLKTLENAQAQQ
- Relative Biological Activity (AML 193 proliferation): 1.2 EC50 (1-133)hIL-3 / EC50 mutant

B10: pMON13298 polypeptide (ligand)
chain: MANCSNMIDEIITHLKQPPLPLLDFNNLNGEDQDILMENNLRRPNLEAFNRAVKSLQNASGIEAILRNLQPCLPSATAAPSRHPIIIKAGDWQEFREKLTFYLVTLEQAQEQQ
- Relative Biological Activity (AML 193 proliferation): 3 EC50 (1-133)hIL-3 / EC50 mutant

B11: pMON13299 polypeptide (ligand)
chain: MANCSNMIDEIITHLKQPPLPLLDFNNLNGEDQDILMENNLRRPNLEAFNRAVKSLQNASGIEAILRNLVPCLPSATAAPSRHPITIKAGDWQEFREKLTFYLVTLEQAQEQQ
- Relative Biological Activity (AML 193 proliferation): 2 EC50 (1-133)hIL-3 / EC50 mutant

B12: pMON13300 polypeptide (ligand)
chain: MANCSNMIDEIITHLKQPPLPLLDFNNLNGEDQDILMENNLRRPNLEAFNRAVKSLQNASGIEAILRNLVPCLPSATAAPSRHPITIKAGDWQEFREKLTFYLVSLEHAQEQQ
- Relative Biological Activity (AML 193 proliferation): 3 EC50 (1-133)hIL-3 / EC50 mutant

B13: pMON13294 polypeptide (ligand)
chain: MANCSIMIDEIIHHLKRPPNPLLDPNNLNSEDMDILMERNLRTPNLLAFVRAVKHLENASGIEAILRNLVPCLPSATAAPSRHPITIKAGDWQEFREKLTFYLVSLEHAQEQQ
- Relative Biological Activity (AML 193 proliferation): 3 EC50 (1-133)hIL-3 / EC50 mutant
